Assays:
Assay type in all cases: biochemical
[1] = Coupled spectrophotometric assay of oxaloacetate alpha-decarboxylase activity (purified YdfG, NADPH absorbance at 340 nm); conditions: for Average Specific Activity: oad variants versus native Oad in the spectrophotometric assay; for Fold Increase in oxaloacetate alpha-decarboxylase specific activity: relative to native (parent) Oad lacking mutations, in vitro
Procedure: A coupled assay was developed in order to biochemically assess the oxaloacetate alpha-decarboxylase activity of the candidate enzymes. The coupled assay used exogenously-added purified E. coli YdfG protein, which converts malonate semialdehyde to 3-HP with the concomitant conversion of NADPH to NADP^+ (FIG. 5). […] 3-HP is also detectable by standard analytical methods, for example HPLC and GS-MS. Assays were performed as 200 microliter reactions in a 96-well plate format using a Molecular Dynamics SpectraMax 384 microplate reader with SoftmaxPro software (Molecular Dynamics, Sunnyvale Calif.) to quantitate the rate of change in the 340 nm absorbance. All assays were conducted at 37° C., and the instrument was allowed to mix the plate for 1 second prior to each measurements. The progress of each reaction was monitored for 20 minutes during which measurements were made every 20 seconds. Reaction conditions consisted of 50 mM PIPES pH 6.8 (unless otherwise stated), 2 mM thymidine pyrophosphate, 10 mM dithiothreitol, 4 mM magnesium chloride, 1 mM NADPH (EMD Bioscience), 0.075 mg/mL purified YdfG (Molecular Throughput), and 5 mM oxaloacetate (unless otherwise stated). All chemicals were obtained from Sigma-Aldrich (St. Louis, Mo.) unless otherwise stated. Reactions were initiated with the addition of 10 microliters of concentrated purified protein to each reaction well. In addition, a negative control was performed with each experimental set to control for the rate of background NADPH oxidation. Once the reaction time course was read and the slopes of each well were calculated, the specific activities over the negative control of each candidate protein were calculated. All values reported are the average specific activities measured in triplicate.

[2] = GC-MS analysis of 3-HP produced in the spectrophotometric assay samples
Procedure: A coupled assay was developed in order to biochemically assess the oxaloacetate alpha-decarboxylase activity of the candidate enzymes. The coupled assay used exogenously-added purified E. coli YdfG protein, which converts malonate semialdehyde to 3-HP with the concomitant conversion of NADPH to NADP^+ (FIG. 5). […] 3-HP is also detectable by standard analytical methods, for example HPLC and GS-MS. Assays were performed as 200 microliter reactions in a 96-well plate format using a Molecular Dynamics SpectraMax 384 microplate reader with SoftmaxPro software (Molecular Dynamics, Sunnyvale Calif.) to quantitate the rate of change in the 340 nm absorbance. […] The progress of each reaction was monitored for 20 minutes during which measurements were made every 20 seconds. […] Once the reaction time course was read and the slopes of each well were calculated, the specific activities over the negative control of each candidate protein were calculated. All values reported are the average specific activities measured in triplicate.
Activity of KGD was not measured by the spectrophotometric assay.
Conformation of 3-HP production as well as assessment of the pH dependence of each candidate enzyme was performed as described above, except that coupled reactions with YdfG were evaluated for 3-HP production by GC-MS. […]

[3] = GC-MS confirmation of 3-HP production and pH dependence of candidate enzymes (coupled reaction with YdfG); conditions: 3-HP by GC-MS at pH 5.5, pH 6.0 and pH 6.8; 5 mM oxaloacetate; 37° C., at least 12 hours
Procedure: Conformation of 3-HP production as well as assessment of the pH dependence of each candidate enzyme was performed as described above, except that coupled reactions with YdfG were evaluated for 3-HP production by GC-MS. Reaction conditions consisted of 50 mM PIPES pH 6.8, 2 mM thymidine pyrophosphate, 10 mM dithiothreitol, 4 mM magnesium chloride, 1 mM NADPH (EMD Bioscience), 0.075 mg/mL purified YdfG (Molecular Throughput), and 5 mM oxaloacetate (unless otherwise stated). All chemicals were obtained from Sigma-Aldrich unless otherwise stated. Reactions were performed at 0.6 mL volumes in triplicate and were initiated with the addition of 600 micrograms of purified protein. In addition, a negative control lacking protein was also performed with each set. Reactions were allowed to proceed at 37° C. for at least 12 hours. […] Soluble monomeric 3-HP is quantified using GC-MS after a single exaction with ethyl acetate from a reaction sample. […] A standard curve of known 3-HP concentrations is prepared at the beginning of the run and a known quantity of ketohexanoic acid (1 g/L) is added to both the standards and the samples to act as an internal standard for Quantitation, with tropic acid as an additional internal standard. […] 3-HP is quantified using a 3HP standard curve at the beginning of the run and the data are analyzed using HP Chemstation. […]

Molecule | Average Specific Activity [1] | Fold Increase in oxaloacetate alpha-decarboxylase specific activity [1] | Final [3HP] ([2]; Beginning [OAA] 5 mM, pH 6.8) | 3-HP production confirmed by GC-MS ([2]; in the presence of 5 mM oxaloacetate) | pH of optimal activity [3]
Mutant Oad 1: variant of Leuconostoc mesenteroides oad with mutations N45T, R249L, D302G, V418A and L476Q (protein, Leuconostoc mesenteroides, variant of Leuconostoc mesenteroides oad with mutations N45T, R249L, D302G, V418A and L476Q) MTDTLTFNTKHLLEALFESGIRHFIVSPGSRSTPIALLLAEYAEQTNEIKLFVDVDERSAGFFALGIAKTLLEPVVLLGTSGTAIAEYMPAVAEAYAANIPLVVLSTDRPQELQFNGAPQTIPQSNLFGQLTKQAVLIRLQDMHSDVTEYIDFIVQKVVNLSITAPRGPIQINLPLRKPLMPVLDRQDEVHVQRVVFDKQSVQYRLPPITAKRLLILAGPNVLNSYDDSLKKFAIKNNVPVIADVLSQSLHTYTIHGIDVLLQAHKINADLKPDLVVRFGKTPVSARVLQWLKEENILTWHVGEDAGVDHTRHIVRAIKMAPHDFLESMHLTLSKNQIDFNQKWLSLPKVIKTRNEMNIITALDDAVPDDTHIFVANSMPIRDMDNFFTGNHTQRIYANRGANGIDGVISSALGMSAVAKQRSVLLTGDLTLFHDMNGLMMAKNYQLPLDIIVINNNGGGIFSFLPQAGAPKYFEQQFGTPLNIDIKKIADLYYIDYHQLNVPEALSQILQTPSKTTRLIEYKSDHQRNRDDHREVLEMLK | 0.0121 units/mg | 1.6 fold |  |  | 
Mutant Oad 3: variant of Leuconostoc mesenteroides oad with mutations R394C, D434G and T511A (protein, Leuconostoc mesenteroides, variant of Leuconostoc mesenteroides oad with mutations R394C, D434G and T511A) MTDTLTFNTKHLLEALFESGIRHFIVSPGSRSTPIALLLAEYAEQNNEIKLFVDVDERSAGFFALGIAKTLLEPVVLLGTSGTAIAEYMPAVAEAYAANIPLVVLSTDRPQELQFNGAPQTIPQSNLFGQLTKQAVLIRLQDMHSDVTEYIDFIVQKVVNLSITAPRGPIQINLPLRKPLMPVLDRQDEVHVQRVVFDKQSVQYRLPPITAKRLLILAGPNVLNSYDDSLKKFAIKNNVPVIADVLSQSRHTYTIHGIDVLLQAHKINADLKPDLVVRFGKTPVSARVLQWLKEENILTWHVDEDAGVDHTRHIVRAIKMAPHDFLESMHLTLSKNQIDFNQKWLSLPKVIKTRNEMNIITALDDAVPDDTHIFVANSMPIRDMDNFFTGNHTQCIYANRGANGIDGVISSALGMSAVVKQRSVLLTGDLTLFHGMNGLMMAKNYQLPLDIIVINNNGGGIFSFLPQAGAPKYFEQLFGTPLNIDIKKIADLYYIDYHQLNVPEALSQILQAPSKTTRLIEYKSDHQRNRDDHREVLEMLK | 0.0222 units/mg | 2.8 fold |  |  | 
Mutant Oad 2: variant of Leuconostoc mesenteroides oad with mutation T479N (protein, Leuconostoc mesenteroides, variant of Leuconostoc mesenteroides oad with mutation T479N) MTDTLTFNTKHLLEALFESGIRHFIVSPGSRSTPIALLLAEYAEQNNEIKLFVDVDERSAGFFALGIAKTLLEPVVLLGTSGTAIAEYMPAVAEAYAANIPLVVLSTDRPQELQFNGAPQTIPQSNLFGQLTKQAVLIRLQDMHSDVTEYIDFIVQKVVNLSITAPRGPIQINLPLRKPLMPVLDRQDEVHVQRVVFDKQSVQYRLPPITAKRLLILAGPNVLNSYDDSLKKFAIKNNVPVIADVLSQSRHTYTIHGIDVLLQAHKINADLKPDLVVRFGKTPVSARVLQWLKEENILTWHVDEDAGVDHTRHIVRAIKMAPHDFLESMHLTLSKNQIDFNQKWLSLPKVIKTRNEMNIITALDDAVPDDTHIFVANSMPIRDMDNFFTGNHTQRIYANRGANGIDGVISSALGMSAVVKQRSVLLTGDLTLFHDMNGLMMAKNYQLPLDIIVINNNGGGIFSFLPQAGAPKYFEQLFGNPLNIDIKKIADLYYIDYHQLNVPEALSQILQTPSKTTRLIEYKSDHQRNRDDHREVLEMLK | 0.0173 units/mg | 2.2 fold |  |  | 
KGD: alpha-ketoglutarate decarboxylase (kgd) from Mycobacterium tuberculosis, penta-histidine tag, purified (protein, listed as Mycobacterium tuberculosis, penta-histidine tag, alpha-ketoglutarate decarboxylase (kgd) from Mycobacterium tuberculosis, penta-histidine tag, purified) MNLRGTAARRRHRATGDTLDARQLVRQQLRQLQTETRPGALVRWFLLDPKELFDIFVTIQGFTQTTTRQRRQLLQTHNCQIITVVFRLACRQFIIQLTGGQQNTANFIAVADTILVGRFLQDATEFNLGKILNLRNRRLVAQHGFRGKHDQRTLDAVQRVAAQQVKVIGRGARHRDRHATLSPQLQKALNARRRVVRALTLVAVWQQQNNVGQLTPFRFARADELVNDRLGTINKVAELRLPQHNRVWIANGITVLKTHSRVFRQRRIINQELTTGRAAVAVSRQQLQRGELLAGVTVDQHRMTLAKGATTRVLTAQTDQLALSNQAAQRQQLTKRPVNLTLIRHLTTLFQHRLNARVCRETVRQRQEGITDTCQQGFVNSGRQARWDHLVRLDALRRLDAVLLQFAHFVEHTLQLALVIAQRILRLFHADVATTDQSLGVGFTGATLGVHDVIDIRIGHRWIVTLIMTTTTIAQHVNNNVLFKALAEVNCQTRNPDTRFWIVAVHVEDWRTDHLRHIRAVLARTRVFRSGGEADLVVHNDVNRTTHTIARQICQIQRLRNNALTREGRITVQHQRNDGECTLAVGVNGTVVQQVLLRTHQTFQHWIDRFQMGRICRQGNLNIVIAKHLQIQTRRTQVVLDIAGTVSLGRVQIAFKLRKDLRIRFAHDVRQDIQATTVRHANDHFIQTMLGTLVNRRVHHWNNRFRTLQAKTLLAHILGLQEGFKRLRCVQFRQDVLLLSNGRFDVLRLDTLLQPLLLFRVQNVRVLNTDVTAVRVAQQTQHVTQLFVLSTRETVNLKDAVQVPQSQAMRQHLQIRMRTKARLIQAQRVGVRHQMAAVAIGRDQVHHTCVLVNDRVRIIGAPTHWQVRDAQLAEDLIPEAIRQQQFMNGTQEVTAFRTLNDTVVVGRSQGNQFANTQLSDAFLGRALELRRIFHRTDTDDSTLTWHQAWHRVHRANRARIRQRNRNASEVLGGQFTITSTTDDVLVRGNELREAHRLATFDTGHHQRALAIFTLQVNSQTQIGVRRSNRRRLTVHLRVVAIHIRELLNRLNQSITQQMGKADFTTTRAFQLIIDHDTIIDQQFRWHSTHRGRRRHFQRRAHVLHDSSRRTTQDSNFIAFGWRRHRGLGGQSRHDTVARCGRVGRFRRRLRSRRCRTLSDQRAGHTSRLSSRLGSRLRAIVHQKLMPAWVNGRRIITKFTIHTNTRRVLSHHGYISFLKNSISQRQGRHKIYSKCIINTDNIL |  |  | 0.004 ± 0.001 g/L | 3-HP was produced | 6.8

— patent US8809027B1, “Genetically modified organisms for increased microbial production of 3-hydroxypropionic acid involving an oxaloacetate alpha-decarboxylase” (OPX Biotechnologies, Inc., priority 2009, dated 2014)
